Source: IntAct's records for PubMed 29039417

B1: Protein PTHB1 (Homo sapiens), Q3SYG4 (parent)
chain: MSLFKARDWWSTILGDKEEFDQGCLCLANVDNSGNGQDKIIVGSFMGYLRIFSPHPAKTGDGAQAEDLLLEVDLRDPVLQVEVGKFVSGTEMLHLAVLHSRKLCVYSVSGTLGNVEHGNQCQMKLMYEHNLQRTACNMTYGSFGGVKGRDLICIQSMDGMLMVFEQESYAFGRFLPGFLLPGPLAYSSRTDSFLTVSSCQQVESYKYQVLAFATDADKRQETEQQKLGSGKRLVVDWTLNIGEQALDICIVSFNQSASSVFVLGERNFFCLKDNGQIRFMKKLDWSPSCFLPYCSVSEGTINTLIGNHNNMLHIYQDVTLKWATQLPHIPVAVRVGCLHDLKGVIVTLSDDGHLQCSYLGTDPSLFQAPNVQSRELNYDELDVEMKELQKIIKDVNKSQGVWPMTEREDDLNVSVVVSPNFDSVSQATDVEVGTDLVPSVTVKVTLQNRVILQKAKLSVYVQPPLELTCDQFTFEFMTPDLTRTVSFSVYLKRSYTPSELEGNAVVSYSRPTDRNPDGIPRVIQCKFRLPLKLICLPGQPSKTASHKITIDTNKSPVSLLSLFPGFASQSDDDQVNVMGFHFLGGARITVLASKTSQRYRIQSEQFEDLWLITNELILRLQEYFEKQGVKDFACSFSGSIPLQEYFELIDHHFELRINGEKLEELLSERAVQFRAIQRRLLARFKDKTPAPLQHLDTLLDGTYKQVIALADAVEENQGNLFQSFTRLKSATHLVILLIALWQKLSADQVAILEAAFLPLQEDTQELGWEETVDAAISHLLKTCLSKSSKEQALNLNSQLNIPKDTSQLKKHITLLCDRLSKGGRLCLSTDAAAPQTMVMPGGCTTIPESDLEERSVEQDSTELFTNHRHLTAETPRPEVSPLQGVSE
partner: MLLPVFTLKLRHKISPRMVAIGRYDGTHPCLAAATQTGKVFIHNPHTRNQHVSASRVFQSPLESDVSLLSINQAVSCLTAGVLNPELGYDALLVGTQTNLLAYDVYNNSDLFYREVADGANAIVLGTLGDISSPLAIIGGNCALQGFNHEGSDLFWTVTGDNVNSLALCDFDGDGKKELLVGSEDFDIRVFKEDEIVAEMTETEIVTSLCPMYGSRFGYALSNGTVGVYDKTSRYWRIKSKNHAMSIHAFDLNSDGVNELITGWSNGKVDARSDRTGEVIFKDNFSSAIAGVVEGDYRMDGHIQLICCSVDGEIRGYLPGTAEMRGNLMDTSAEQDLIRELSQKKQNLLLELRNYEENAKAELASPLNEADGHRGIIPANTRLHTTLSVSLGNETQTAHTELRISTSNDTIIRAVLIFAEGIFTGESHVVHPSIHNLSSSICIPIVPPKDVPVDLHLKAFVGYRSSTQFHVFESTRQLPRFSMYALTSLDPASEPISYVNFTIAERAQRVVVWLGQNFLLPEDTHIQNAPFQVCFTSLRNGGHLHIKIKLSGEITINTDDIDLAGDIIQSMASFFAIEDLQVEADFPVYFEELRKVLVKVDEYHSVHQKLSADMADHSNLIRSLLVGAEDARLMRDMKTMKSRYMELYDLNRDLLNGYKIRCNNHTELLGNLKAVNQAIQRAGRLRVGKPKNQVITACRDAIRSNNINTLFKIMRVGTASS

Variants of: B1
Settings: with bbs2_human BBS2, Q9BXC9

effect of a mutation on the interaction | Variant
with no effect | S494K
with no effect | S494E
with no effect | S494A
with no effect | C469K
with no effect | C469E
with no effect | C469A
with no effect | L446E
with no effect | L446K
with no effect | L446A
with no effect | T482K
with no effect | T482E
with no effect | T482A
with no effect | K456E
with no effect | K456A
with no effect | S439A
with no effect | S439K
with no effect | S439E
with no effect | R449A
with no effect | R449K
with no effect | R449E
with no effect | T484A
with no effect | T484E
with no effect | T484K

effect of a mutation on the interaction | Variant
with no effect | T468E
with no effect | T468K
with no effect | T468A
with no effect | P464A
with no effect | P464K
with no effect | P464E
with no effect | M477A
with no effect | M477K
with no effect | M477E
with no effect | F487K
with no effect | F487A
with no effect | F487E
with no effect | P438K
with no effect | P438A
with no effect | P438E
with no effect | L465A
with no effect | L465E
with no effect | L465K
with no effect | L452A
with no effect | L452E
with no effect | L452K
with no effect | F476A
with no effect | F476E

effect of a mutation on the interaction | Variant
with no effect | F476K
with no effect | T478E
with no effect | T478K
disrupting interaction strength | T478I
with no effect | T478A
disrupting interaction strength | P479L
with no effect | P479E
with no effect | P479A
with no effect | P479K
with no effect | T441A
with no effect | T441E
with no effect | T441K
with no effect | Y490K
with no effect | Y490E
with no effect | Y490A
with no effect | V459K
with no effect | V459A
with no effect | V459E
with no effect | I451A
with no effect | I451E
with no effect | I451K
with no effect | F472E
with no effect | F472A

effect of a mutation on the interaction | Variant
with no effect | F472K
with no effect | T496E
with no effect | T496A
with no effect | T496K
disrupting interaction strength | D470N
with no effect | D470K
with no effect | D470A
with no effect | D470E
with no effect | L457A
with no effect | L457E
with no effect | L457K
with no effect | P463K
with no effect | P463E
with no effect | P463A
with no effect | S458A
with no effect | S458E
with no effect | S458K
with no effect | K454E
with no effect | K454A
with no effect | V444A
with no effect | V444E
with no effect | V444K
with no effect | R493A

effect of a mutation on the interaction | Variant
with no effect | R493K
with no effect | R493E
with no effect | Q453E
with no effect | Q453K
with no effect | Q453A
with no effect | L481E
with no effect | L481K
with no effect | L481A
with no effect | L467A
with no effect | L467K
with no effect | L467E
with no effect | Q471E
with no effect | Q471K
with no effect | Q471A
with no effect | Y495E
with no effect | Y495K
with no effect | Y495A
with no effect | V440E
with no effect | V440K
with no effect | V440A
with no effect | V485K
with no effect | V485A
with no effect | V485E

effect of a mutation on the interaction | Variant
with no effect | Y460E
with no effect | Y460K
with no effect | Y460A
with no effect | V450A
with no effect | V450E
with no effect | V450K
with no effect | V461E
with no effect | V461K
with no effect | V461A
with no effect | L491E
with no effect | L491K
with no effect | L491A
with no effect | F474E
with no effect | F474K
with no effect | F474A
with no effect | E466A
with no effect | E466K
with no effect | Q447E
with no effect | Q447A
with no effect | Q447K
with no effect | P497E
with no effect | P497A
with no effect | N448K

effect of a mutation on the interaction | Variant
with no effect | N448E
with no effect | N448A
with no effect | Q462E
with no effect | Q462K
disrupting interaction strength | Q462Y
disrupting interaction strength | Q462T
with no effect | Q462A
with no effect | S486E
with no effect | S486A
disrupting interaction strength | S486R
with no effect | S486K
disrupting interaction strength | S486N
with no effect | L436E
with no effect | L436K
with no effect | V437E
with no effect | V437K
with no effect | V437A
with no effect | R483A
with no effect | R483K
with no effect | R483E
with no effect | D480A
with no effect | D480E
with no effect | D480K

effect of a mutation on the interaction | Variant
with no effect | V489E
with no effect | V489A
with no effect | V489K
with no effect | A455E
with no effect | A455K
with no effect | T473K
with no effect | T473A
with no effect | T473E
with no effect | K492A
with no effect | K492E
with no effect | E475A
with no effect | E475K
with no effect | K443A
with no effect | K443E
with no effect | S488A
with no effect | S488K
with no effect | S488E
with no effect | T445E
with no effect | T445K
with no effect | T445A
with no effect | V442A
with no effect | V442K
with no effect | V442E
